Laboratory results taken from paper PMC10154249, “Unique progerin C-terminal peptide ameliorates Hutchinson–Gilford progeria syndrome phenotype by rescuing BUBR1” (Nature Aging, 2023).

B1: progerin (protein)
chain: METPSQRRATRSGAQASSTPLSPTRITRLQEKEDLQELNDRLAVYIDRVRSLETENAGLRLRITESEEVVSREVSGIKAAYEAELGDARKTLDSVAKERARLQLELSKVREEFKELKARNTKKEGDLIAAQARLKDLEALLNSKEAALSTALSEKRTLEGELHDLRGQVAKLEAALGEAKKQLQDEMLRRVDAENRLQTMKEELDFQKNIYSEELRETKRRHETRLVEIDNGKQREFESRLADALQELRAQHEDQVEQYKKELEKTYSAKLDNARQSAERNSNLVGAAHEELQQSRIRIDSLSAQLSQLQKQLAAKEAKLRDLEDSLARERDTSRRLLAEKEREMAEMRARMQQQLDEYQELLDIKLALDMEIHAYRKLLEGEEERLRLSPSPTSQRSRGRASSHSSQTQGGGSVTKKRKLESTESRSSFSQHARTSGRVAVEEVDEEGKFVRLRNKSNEDQSMGNWQIKRQNGDDPLLTYRFPPKFTLKAGQVVTIWAAGAGATHSPPTDLVWKAQNTWGCGNSLRTALINSTGEEVAMRKLVRSVTVVEDDEDEDGDDLLHHHHGSHCSSSGDPAEYNLRSRTVLCGTCGQPADKASASGSGAQSPQNCSIM
modifications: left off: GST, end not stated, kept
B2: mVenus-progerin (protein)
chain: METPSQRRATRSGAQASSTPLSPTRITRLQEKEDLQELNDRLAVYIDRVRSLETENAGLRLRITESEEVVSREVSGIKAAYEAELGDARKTLDSVAKERARLQLELSKVREEFKELKARNTKKEGDLIAAQARLKDLEALLNSKEAALSTALSEKRTLEGELHDLRGQVAKLEAALGEAKKQLQDEMLRRVDAENRLQTMKEELDFQKNIYSEELRETKRRHETRLVEIDNGKQREFESRLADALQELRAQHEDQVEQYKKELEKTYSAKLDNARQSAERNSNLVGAAHEELQQSRIRIDSLSAQLSQLQKQLAAKEAKLRDLEDSLARERDTSRRLLAEKEREMAEMRARMQQQLDEYQELLDIKLALDMEIHAYRKLLEGEEERLRLSPSPTSQRSRGRASSHSSQTQGGGSVTKKRKLESTESRSSFSQHARTSGRVAVEEVDEEGKFVRLRNKSNEDQSMGNWQIKRQNGDDPLLTYRFPPKFTLKAGQVVTIWAAGAGATHSPPTDLVWKAQNTWGCGNSLRTALINSTGEEVAMRKLVRSVTVVEDDEDEDGDDLLHHHHGSHCSSSGDPAEYNLRSRTVLCGTCGQPADKASASGSGAQSPQNCSIM
modifications: left off: mVenus, end not stated, kept

Tests used:
IMR90 cells [1] = experiment: Ki67 immunofluorescence of IMR90 cells; format: cell-based, human; settings: Fig.1k, IMR90, Vector 67, 75, 60, P vs Vector: BUBR1 0.803, progerin 0.0018
Description: (§1) Immunofluorescence was performed as described previously. Cells were plated on cover slips in 12-well plates, left overnight before the treatment. Cells were fixed in 1% formaldehyde in culture medium for 10 min at 37 °C and permeabilized with 0.2% Triton X-100 in PBS for 10 min at room temperature. Cells were washed twice in PBS and blocked for 1 h with 5% BSA in PBS and then incubated with primary antibodies at 4 °C overnight, washed three times in PBS and incubated with secondary antibodies for 1 h at room temperature. Cell nuclei were counterstained with a 500 nM concentration of 4,6-diamidino-2-phenylindole (DAPI) (Sigma). Images were acquired by a fluorescence microscope (OLYMPUS FV-1000, Carl Zeiss LSM880 or Leica DMi8) and analyzed with software NIS-Elements AR v.5.0.1 (Nikon), FLUOVIEW v.4.2b (OLYMPUS), ZEN v.2.3 SP1 (Carl Zeiss) and Leica Application Suite X v.3.6.0.24 (Leica). Cells were quantified by investigators who were blinded to the identity of the analyzed cell.

[2] = system: BUBR1 kinetochore localization in H1299 cells; experiment: Immunofluorescence, abnormal localization of BUBR1 in H1299 cells; format: cell-based; settings: Fig. 3h, H1299, Vector 7, 11, 14, P=0.0008 vs Vector
Description: as §1

IMR90 cells [3] = experiment: SA-β-gal staining of IMR90 cells (progerin, BUBR1, shBUBR1); format: cell-based, human; settings: Fig.1i
Description: SA-β-gal staining was performed as previously described. Cells were fixed in 0.5% glutaraldehyde for 15 min at room temperature, washed three times with PBS (pH 6.0) containing 1 mM MgCl2 and exposed overnight 37 °C to containing 1 mg ml^–1 5-bromo-4-chloro-3-indolyl-β-D-galactopyranoside (MCE, catalog no. HY-15934), 0.12 mM potassium ferrocyanide (Sigma, catalog no. P3289), 0.12 mM potassium ferricyanide (Sigma, catalog no. P8131) and 1 mM MgCl2 PBS buffer (pH 6.0). Cells were washed three times with H2O and observed under a microscope (OLYMPUS CKX53). SA-β-gal positive cells were quantified by investigators who were blinded to the identity of the analyzed cell.

[4] = system: IMR90 and HGADFN003 cells; experiment: Metaphase chromosome spread assay, aneuploid cells; format: cell-based, human; settings: Fig.1p, IMR90, Vector 6, 5, 8
Description: For the metaphase chromosome spread assay, 1.5 × 10^6 cells were seeded in a 6 cm dish and incubated for 24 h with fresh medium. Then, colchicine was added to a final concentration of 0.2 μg ml^–1 and the cells were incubated at 37 °C for 2 h. After digestion, we collected and rinsed the cells with PBS. The cells were centrifuged at 160g for 10 min. Then, 1 M KCl was added to a final concentration of 0.075 mol l^–1 and the samples were incubated at 37 °C for 20 min. The cells were centrifuged, and the supernatant aspirated. The pellet was resuspended, and 1 ml methanol:glacial acetic acid (3:1) solution was added. The sample was rested at room temperature for 10 min. Then, the cells were centrifuged at 160g for 10 min. The supernatant was aspirated, and the pellet resuspended in 1 ml fixative for 30 min. The cells were centrifuged and the pellet was suspended in 1 ml fixative again for 30 min. The cells were centrifuged at 160g for 10 min and the supernatant aspirated. The pellet was then resuspended in a small volume of fixative (typically less than 500 μl) until the cell suspension appeared lightly milky. A small quantity of the cell suspension was held vertically in a pipette with the end about 10 cm above the slide. A single drop was released from this height onto the slide and allowed to air dry. The cells were then incubated with 500 nM of DAPI (Invitrogen) for 10 min. Slides were examined with an Olympus BX53 fluorescence microscope and the images were captured by using the Olympus IPP v.7.0 software. Aneuploid cells were quantified by investigators who were blinded to the identity of the analyzed cell.

PTBP1–BUBR1 mRNA 3′-UTR = experiment: RIP assay of PTBP1 and BUBR1 mRNA 3′-UTR in HEK-293T cells; format: cell-based; settings: Fig. 4n, PTBP1+progerin, P=0.0002 vs PTBP1
Description: RIP and RNA pulldown assays were performed as previously described. The RIP experiment was carried out using the EZ-Magna RIP Kit (Millipore, catalog no. 17-701). The coprecipitated RNAs were extracted through Trizol reagent and detected by RT-PCR. The primer sequences for PCR, synthesized by Comate Bioscience, were as follows:
BUBR1-3′UTR_fwd (5′-[…]-3′) and BUBR1-3′UTR_rev (5′- […]-3′).

BUBR1 = BUBR1 nuclear membrane localization in IMR90, HGADFN003 or H1299 cells; format: cell-based, human; settings: Fig. 2c
Description: as §1

Molecule | Relative percentage of Ki67 positive cells (IMR90 cells [1]; replicate 1) | Relative percentage of Ki67 positive cells (IMR90 cells [1]; replicate 2) | Relative percentage of Ki67 positive cells (IMR90 cells [1]; replicate 3) | Relative percentage of the number of abnormal localization cells of BUBR1 ([2]; replicate 1) | Relative percentage of the number of abnormal localization cells of BUBR1 ([2]; replicate 2) | Relative percentage of the number of abnormal localization cells of BUBR1 ([2]; replicate 3) | Relative percentage of SA-β-gal positive cells (IMR90 cells [3]; Vector 2, 1, 2, P vs Vector: BUBR1 0.2302, progerin 0.0003, replicate 1) | Relative percentage of SA-β-gal positive cells (IMR90 cells [3]; Vector 2, 1, 2, P vs Vector: BUBR1 0.2302, progerin 0.0003, replicate 2) | Relative percentage of SA-β-gal positive cells (IMR90 cells [3]; Vector 2, 1, 2, P vs Vector: BUBR1 0.2302, progerin 0.0003, replicate 3) | Relative percentage of aneuploid cells ([4]; replicate 1) | Relative percentage of aneuploid cells ([4]; replicate 2) | Relative percentage of aneuploid cells ([4]; replicate 3) | PTBP1 enrichment on BUBR1-3'UTR (2-ΔΔCt) (PTBP1–BUBR1 mRNA 3′-UTR; replicate 1) | PTBP1 enrichment on BUBR1-3'UTR (2-ΔΔCt) (PTBP1–BUBR1 mRNA 3′-UTR; replicate 2) | PTBP1 enrichment on BUBR1-3'UTR (2-ΔΔCt) (PTBP1–BUBR1 mRNA 3′-UTR; replicate 3) | BUBR1 nuclear membrane localization of injected cells (BUBR1; mVenus 1, 2, 2, P<0.0001, replicate 1) | BUBR1 nuclear membrane localization of injected cells (BUBR1; mVenus 1, 2, 2, P<0.0001, replicate 2) | BUBR1 nuclear membrane localization of injected cells (BUBR1; mVenus 1, 2, 2, P<0.0001, replicate 3)
B1 | 27% | 31% | 35% | 38% | 37% | 32% | 40% | 50% | 39% | 42% | 38% | 46% | 8.488 | 7.488 | 7.699 |  |  | 
B2 |  |  |  |  |  |  |  |  |  |  |  |  |  |  |  | 97% | 95% | 94%
